Results: PMC11879457 (Nucleic Acids Research, 2025)
Substitutions are numbered along the chain they refer to.

T1: YdaTmut (H56A R57A) (Escherichia coli K-12 MG1655 (Rac …, UniProt P76064 1-140, H56A;R57A))
T1 sequence: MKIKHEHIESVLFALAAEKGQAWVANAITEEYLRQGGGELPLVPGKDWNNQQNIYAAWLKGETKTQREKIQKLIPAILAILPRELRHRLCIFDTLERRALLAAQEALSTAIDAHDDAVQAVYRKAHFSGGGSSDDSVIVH

T2: YdaT (Rac prophage) (Escherichia coli K-12 MG1655 (Rac …, UniProt P76064 1-140))
T2 sequence: T1 sequence with A56H, A57R

B1: N-terminally 6x His-tagged YdaT, wild type (Rac prophage transcription factor) (natural protein, E. coli K-12 (Rac prophage), UniProt P76064 1-140, looked up)
chain: T1 sequence with A56H, A57R
B2: IGR footprint substrate (165 bp) (dsDNA)
DNA 1: GCGCATTACATTAGGCAATCCCTACCCTTACTGCATTAGGCACAGCCTATTGACAATTGCGTTAGGCGTCGCCTAATATTTCTGTGTGTTTTTGGAGTTCATTCGATGAAAAAAGAGAACTATTCATTCAAGCAAGCTTGTGCTGTTGTCGGTGGGCAATCAGCA
DNA 2: TGCTGATTGCCCACCGACAACAGCACAAGCTTGCTTGAATGAATAGTTCTCTTTTTTCATCGAATGAACTCCAAAAACACACAGAAATATTAGGCGACGCCTAACGCAATTGTCAATAGGCTGTGCCTAATGCAGTAAGGGTAGGGATTGCCTAATGTAATGCGC

Columns and labels:
[1] = biological target: the molecule itself; assay: SDS-PAGE
[2] = biological target: the molecule itself; assay: SEC
[3] = biological target: T1, YdaTmut (H56A R57A); assay: DNase I footprinting
[4] = biological target: T2, YdaT (Rac prophage); assay: DNase I footprinting

Binder | stoichiometry N [1] | stoichiometry N [2] | binding result [3] | binding result [4]
B1 | 2 | 4 |  | 
B2 |  |  | no binding | binds
